PMC6783653, “TIP30 counteracts cardiac hypertrophy and failure by inhibiting translational elongation” (EMBO Molecular Medicine, 2019)

Target: T1, GST-tagged eEF1A1 (rat, UniProt P62630 1-462)
T1 construct: eEF1A1, rat, open reading frame BC128723.1; Cloned into pGEX-4T1, which should place GST at the N-terminus (surmise); also called GST-eEF1A1
T1 sequence (looked up): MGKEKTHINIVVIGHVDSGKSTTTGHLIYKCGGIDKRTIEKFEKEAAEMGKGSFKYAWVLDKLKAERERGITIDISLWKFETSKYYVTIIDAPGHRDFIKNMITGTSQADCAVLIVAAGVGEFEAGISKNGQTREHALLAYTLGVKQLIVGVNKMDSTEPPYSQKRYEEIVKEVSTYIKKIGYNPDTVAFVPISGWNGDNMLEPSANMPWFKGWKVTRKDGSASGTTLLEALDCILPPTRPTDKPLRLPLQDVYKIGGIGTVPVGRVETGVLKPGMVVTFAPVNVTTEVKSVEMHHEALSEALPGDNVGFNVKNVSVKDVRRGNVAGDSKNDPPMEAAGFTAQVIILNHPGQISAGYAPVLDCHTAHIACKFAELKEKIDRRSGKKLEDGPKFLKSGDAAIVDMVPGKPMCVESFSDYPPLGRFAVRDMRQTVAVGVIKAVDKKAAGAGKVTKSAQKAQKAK
Experiment: pull-down; GST or GST-eEF1A1 on glutathione agarose beads, purified eEF1B2-His; purified TIP30-His added in increasing amounts
Conditions: both partners purified

B1: purified eEF1B2-His (natural protein, rat, UniProt A6IPG1 1-225, looked up)
chain: MGFGDLKTPAGLQVLNDYLADKSYIEGYVPSQADVAVFEAISGPPPADLCHALRWYNHIKSYEKEKASLPGVKKSLGKYGPVSVADTTGSGAADAKDDDDIDLFGSDDEEESEDAKRLREERLAQYESKKAKKPAVVAKSSILLDVKPWDDETDMTKLEECVRSIQADGLVWGSSKLVPVGYGIKKLQIQCVVEDDKVGTDMLEEQITAFEDYVQSMDVAAFNKI
notes: eEF1B2, rat, open reading frame NM_001108799.2
Q: Does B1 bind?
A: Result: binds
